Laboratory results taken from patent publication US20160010082A1 (University of California, published 2016).
Substitutions are numbered along the chain they refer to.

T1: biotinylated C-reactive protein (UniProt P02741 19-224, biotinylated)
T1 construct: also called CRP; biotinylated CRP
T1 sequence (looked up): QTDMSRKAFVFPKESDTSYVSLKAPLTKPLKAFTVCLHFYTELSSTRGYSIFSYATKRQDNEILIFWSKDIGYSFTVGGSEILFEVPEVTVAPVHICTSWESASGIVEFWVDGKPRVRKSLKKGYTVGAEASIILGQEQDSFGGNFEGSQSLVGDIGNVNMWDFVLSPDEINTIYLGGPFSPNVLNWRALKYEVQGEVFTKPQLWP

B1: CPX-4X-1 displaying SApep at the N-terminus (other)
chain: GQSGQAECHPQGPPCIEGRKGGQSGQSGDYNKNQYYGITAGPAYRINDWASIYGVVGVGYGKFQTTEYPTYKHDTSDYGFSYGAGLQFNPMENVALDFSYEQSRIRSVDVGTWIAGVGYRFGSKRATSTVTGGYAQSDAQGQMNKMGGFNLKYRYEEDNSPLGVIGSFTYTEKSRTAS
B2: CPX with the streptavidin binding peptide fused to the N-terminus (pB33CPX-SApep) (other)
chain: B1 chain with S123G, K124S, R125G
notes: also called parent CPX scaffold
B3: CPX-4X-2 displaying SApep at the N-terminus (other)
chain: B1 chain with S123R, K124Q, R125K
B4: CPX-4X-3 displaying SApep at the N-terminus (other)
chain: B1 chain with G122S, S123W, K124P, R125N
B5: CPX-4X-4 displaying SApep at the N-terminus (other)
chain: B1 chain with A115V, G122P, S123R, R125S
B6: CPX-5X-1 displaying SApep at the N-terminus (other)
chain: GQSGQAECHPQGPPCIEGRKGGQSGQSGDYNKNQYYGITAGPAYRINDWASIYGVVGVGYGKFQTTEYPTYKHDTSDYGFSYGAGLQFNPMENVALDFSYEQSRIRSVDVGTWIAGVGYRFGRTRKATSTVTGGYAQSDAQGQMNKMGGFNLKYRYEEDNSPLGVIGSFTYTEKSRTAS
B7: CPX-5X-2 displaying SApep at the N-terminus (other)
chain: B6 chain with T124K, K126N
B8: CPX-5X-3 displaying SApep at the N-terminus (other)
chain: B6 chain with A115V, R123A, K126R
B9: CPX-5X-4 displaying SApep at the N-terminus (other)
chain: B6 chain with G116S, R123S, T124Q, R125S
B10: CPX-L2-3 displaying SApep at the N-terminus (other)
chain: GQSGQAECHPQGPPCIEGRKGGQSGQSGDYNKNQYYGITAGPAYRINDWASIYGVVGVGYGKFQTTEYPTYKHDTSDYGFSYGAGLQFNPMENVALDFSYEQSRIRSVDVGTWIISVGYRFGTRGSQATSTVTGGYAQSDAQGQMNKMGGFNLKYRYEEDNSPLGVIGSFTYTEKSRTAS
B11: CPX-6X-1 displaying SApep at the N-terminus (other)
chain: B10 chain with I115A, S116G, R124K, G125R, S126Y, Q127H
B12: CPX-6X-2 displaying SApep at the N-terminus (other)
chain: B10 chain with I115A, S116G, T123R, G125H, S126Y, Q127K
B13: CPX-6X-3 displaying SApep at the N-terminus (other)
chain: B10 chain with I115A, S116G, T123N, G125R, S126H, Q127R
B14: CPX-6X-4 displaying SApep at the N-terminus (other)
chain: B10 chain with I115A, T123S, R124K, G125Q, Q127K
B15: CPX-L2-1 (enhanced CPX, eCPX) displaying SApep at the N-terminus (other)
chain: B10 chain with I115L, T123S, R124K, G125S, S126R, Q127R
notes: also called eCPX-nSApep
B16: CPX-L2-2 displaying SApep at the N-terminus (other)
chain: B10 chain with I115F, T123R, R124K, G125N, Q127H
B17: CPX-L2-4 displaying SApep at the N-terminus (other)
chain: B10 chain with I115L, T123H, G125S, S126H, Q127R
B18: CPX-L2-5 displaying SApep at the N-terminus (other)
chain: B10 chain with T123D, G125K, S126R, Q127R
B19: CPX-L2-6 displaying SApep at the N-terminus (other)
chain: B10 chain with I115V, S116A, T123A, S126R, Q127H
B20: CPX-L2-7 displaying SApep at the N-terminus (other)
chain: B10 chain with I115V, R124H, G125N
B21: CPX-L2-8 displaying SApep at the N-terminus (other)
chain: B10 chain with I115V, T123P, R124N, G125K, Q127R
B22: CPX-L2-9 displaying SApep at the N-terminus (other)
chain: B10 chain with T123P, R124H, G125N, Q127R
B23: CPX-L2-10 displaying SApep at the N-terminus (other)
chain: GQSGQAECHPQGPPCIEGRKGGQSGQSGDYNKNQYYGITAGPAYRINDWASIYGVVGVGYGKFQTTEYPTYKHDTSDYGFSYGAGLQFNPMENVALDFSYEQSRIRSVDVGTWIISVGYRFHRGYHAQRATSTVTGGYAQSDAQGQMNKMGGFNLKYRYEEDNSPLGVIGSFTYTEKSRTAS
B24: eCPX displaying the CRP binding peptide (CRPpep) at the N-terminus (other)
chain: GQSGQEWACNDRGFNCQLQRGGQSGQSGDYNKNQYYGITAGPAYRINDWASIYGVVGVGYGKFQTTEYPTYKHDTSDYGFSYGAGLQFNPMENVALDFSYEQSRIRSVDVGTWILSVGYRFGSKSRRATSTVTGGYAQSDAQGQMNKMGGFNLKYRYEEDNSPLGVIGSFTYTEKSRTAS
notes: Disulfide-constrained peptide; also called CRP-1
B25: eCPX displaying the VEGF binding peptide at the N-terminus (other)
chain: GQSGQVEPNCDIHVMWEWECFERLGGQSGQSGDYNKNQYYGITAGPAYRINDWASIYGVVGVGYGKFQTTEYPTYKHDTSDYGFSYGAGLQFNPMENVALDFSYEQSRIRSVDVGTWILSVGYRFGSKSRRATSTVTGGYAQSDAQGQMNKMGGFNLKYRYEEDNSPLGVIGSFTYTEKSRTAS
notes: Disulfide-constrained 19-mer; also called V114
B26: CPX-3X-3 displaying SApep at the N-terminus (other)
chain: GQSGQAECHPQGPPCIEGRKGGQSGQSGDYNKNQYYGITAGPAYRINDWASIYGVVGVGYGKFQTTEYPTYKHDTSDYGFSYGAGLQFNPMENVALDFSYEQSRIRSVDVGTWIAGVGYRFGTKATSTVTGGYAQSDAQGQMNKMGGFNLKYRYEEDNSPLGVIGSFTYTEKSRTAS
B27: CPX-3X-4 displaying SApep at the N-terminus (other)
chain: B26 chain with T123K

Experiments:
[1] = biological target: T2, streptavidin-R-phycoerythrin (UniProt P22629 37-163, limits assumed); experiment: flow cytometry of E. coli displaying the construct, 100 nM SA-PE; 50 minutes of expression
T2 construct: Bought conjugate; also called SA-PE; fluorescently-conjugated streptavidin probe
T2 sequence (P22629 37-163 limits assumed): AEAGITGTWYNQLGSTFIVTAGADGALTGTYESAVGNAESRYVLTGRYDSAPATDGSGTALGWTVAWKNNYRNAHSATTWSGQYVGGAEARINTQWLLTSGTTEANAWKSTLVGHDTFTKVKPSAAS

[2] = biological target: T2, streptavidin-R-phycoerythrin; experiment: flow cytometry of E. coli displaying the construct, 100 nM SA-PE; 25 minutes of expression
[3] = biological target: T2, streptavidin-R-phycoerythrin; experiment: flow cytometry of E. coli displaying the construct, 100 nM SA-PE; 30 minutes of expression
Method: To compare the display level of CPX and eCPX as a function of time of CPX and eCPX, cells were subcultured 1:50 from overnight stocks into 5 mL LB Cm and grown for 2 hours shaking (250 rpm) at 37° C. The cells were then moved to room temperature (22° C.) to equilibrate and induced with 0.04% (w/v) L-arabinose still shaking at 250 rpm. Five μL samples were taken prior to induction, 30, 60, and 90 minutes after induction then added to 50 μL of 100 nM SA-PE in PBS and incubated on ice for 45 minutes. After which the cells were centrifuged (3000 g, 5 min), supernatant removed, and resuspended in 500 μL ice cold PBS. Cells were immediately analyzed with a […] using 488 nm excitation and collected fluorescence data at 576 nm.
The cell surface display level of SApep was measured at incremental times after induction of expression for these three scaffolds. […] The level of display was measured before and after 30, 60, and 90 minutes of induction using flow cytometry (FIG. 1). […] After only 30 minutes of expression, the level of display of eCPX-nSApep was 50-fold above background autofluorescence.

[4] = biological target: T1, biotinylated C-reactive protein; experiment: flow cytometry of E. coli displaying the construct, 100 nM biotinylated CRP then 10 nM SA-PE; 30 minutes of expression; reference CPX display
[5] = biological target: T3, biotinylated vascular endothelial growth factor (UniProt P15692-4 27-191, limits assumed); experiment: flow cytometry of E. coli displaying the construct, 65 nM biotinylated VEGF then 10 nM SA-PE; reference CPX display
T3 construct: also called VEGF; biotinylated VEGF
T3 sequence (P15692 other isoform, or with tags, fused parts or gaps limits assumed): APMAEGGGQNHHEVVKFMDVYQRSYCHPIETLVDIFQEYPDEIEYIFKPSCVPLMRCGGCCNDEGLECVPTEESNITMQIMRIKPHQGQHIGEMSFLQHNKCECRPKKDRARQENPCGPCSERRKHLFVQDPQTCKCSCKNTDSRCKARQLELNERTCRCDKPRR

Binder	Relative Display level (fold fluorescence above background) [1] [fold above background]	Relative Display level (fold fluorescence above background) [2] [fold above background]	other results
B1	18		
B2	2.3	1.5	
B3	14		
B4	15		
B5	22		
B6	24		
B7	22		
B8	32		
B9	36		
B10		29	
B11	35		
B12	28		
B13	24		
B14	38		
B15		33	level of display (fold above background autofluorescence) [3]: 50 fold above background
B16		19	
B17		27	
B18		28	
B19		24	
B20		26	
B21		17	
B22		23	
B23		33	
B24			fold higher fluorescence labeling than for CPX [4]: ~50 fold
B25			fold more efficient display than CPX [5]: > 3 fold
B26	7.1		
B27	10		
